Assay results: paper PMC10655381

Target: recombinant glycerol dehydratase 2eGDHt αβγ heterotrimer from Klebsiella pneumoniae 2e (Klebsiella pneumoniae 2e) (UniProt Q59476)
Experiment: native gel or EMSA; Native-PAGE of purified recombinant 2eGDHt; heterotrimer to dimer of heterotrimers

recombinant glycerol dehydratase 2eGDHt αβγ heterotrimer from Klebsiella pneumoniae 2e (from UniProt Q59476 1-555; A6TE99 1-194; Q59475 1-141) (complex)
stoichiometry N: 2
